Laboratory results: patent publication US20180155451A1 (published 2018)

Target: T1, FcγRIIa H (human, UniProt P12318 34-217)
T1 construct: extracellular domain; also called FcgRIIa H type; 2aH; not shown: His tag at the C terminus
T1 sequence (looked up): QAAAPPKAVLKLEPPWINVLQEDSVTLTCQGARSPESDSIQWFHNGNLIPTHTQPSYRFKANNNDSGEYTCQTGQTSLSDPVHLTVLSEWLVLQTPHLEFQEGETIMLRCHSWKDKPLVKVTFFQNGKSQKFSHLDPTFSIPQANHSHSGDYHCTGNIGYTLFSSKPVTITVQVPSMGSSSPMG
Assay: SPR Biacore, relative binding

B1: GpH7-B3 variant K334_04F/GpL16-k0 (antibody, human IgG1, kappa)
heavy: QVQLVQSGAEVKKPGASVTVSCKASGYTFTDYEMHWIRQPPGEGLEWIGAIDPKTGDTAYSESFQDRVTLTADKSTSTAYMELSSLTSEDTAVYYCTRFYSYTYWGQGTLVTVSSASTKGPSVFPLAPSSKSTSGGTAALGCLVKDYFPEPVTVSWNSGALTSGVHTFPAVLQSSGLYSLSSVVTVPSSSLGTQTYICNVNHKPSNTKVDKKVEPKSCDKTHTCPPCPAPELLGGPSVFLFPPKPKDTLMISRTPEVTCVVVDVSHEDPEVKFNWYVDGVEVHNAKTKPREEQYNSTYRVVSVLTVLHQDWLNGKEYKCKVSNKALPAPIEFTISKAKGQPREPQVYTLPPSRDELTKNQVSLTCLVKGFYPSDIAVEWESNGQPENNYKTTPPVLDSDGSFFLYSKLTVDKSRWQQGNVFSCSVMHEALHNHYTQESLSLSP
light: DIVMTQSPLSLPVTPGEPASISCQASESLVHSNRNTYLHWYLQKPGQSPQLLIYKVSNRFSGVPDRFSGSGSGTDFTLKISRVEAEDVGVYYCSQNTHVPPTFGQGTKVEIERTVAAPSVFIFPPSDEQLKSGTASVVCLLNNFYPREAKVQWKVDNALQSGNSQESVTEQDSKDSTYSLSSTLTLSKADYEKHKVYACEVTHQGLSSPVTKSFNRGEC
notes: also called Ho Ab K334_04F
Ho/Con_2aH: 103 % of GpH7-B3/GpL16-k0 (=100)

B2: GpH7-B3 variant K334_07I/GpL16-k0 (antibody, human IgG1, kappa)
heavy: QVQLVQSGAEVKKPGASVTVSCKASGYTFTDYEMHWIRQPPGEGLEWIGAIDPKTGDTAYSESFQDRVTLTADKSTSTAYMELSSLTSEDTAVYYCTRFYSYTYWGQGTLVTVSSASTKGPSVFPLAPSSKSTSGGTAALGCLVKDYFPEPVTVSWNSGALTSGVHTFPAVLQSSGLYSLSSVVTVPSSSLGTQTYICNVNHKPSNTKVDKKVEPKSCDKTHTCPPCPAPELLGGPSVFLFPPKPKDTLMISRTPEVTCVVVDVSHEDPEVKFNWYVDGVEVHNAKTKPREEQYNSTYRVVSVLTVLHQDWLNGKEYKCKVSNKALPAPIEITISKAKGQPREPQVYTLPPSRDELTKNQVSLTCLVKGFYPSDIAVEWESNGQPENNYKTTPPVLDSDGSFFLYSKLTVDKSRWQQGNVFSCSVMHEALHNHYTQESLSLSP
light: DIVMTQSPLSLPVTPGEPASISCQASESLVHSNRNTYLHWYLQKPGQSPQLLIYKVSNRFSGVPDRFSGSGSGTDFTLKISRVEAEDVGVYYCSQNTHVPPTFGQGTKVEIERTVAAPSVFIFPPSDEQLKSGTASVVCLLNNFYPREAKVQWKVDNALQSGNSQESVTEQDSKDSTYSLSSTLTLSKADYEKHKVYACEVTHQGLSSPVTKSFNRGEC
notes: also called Ho Ab K334_07I
Ho/Con_2aH: 116 % of GpH7-B3/GpL16-k0 (=100)

B3: GpH7-B3 variant K334_15Y/GpL16-k0 (antibody, human IgG1, kappa)
heavy: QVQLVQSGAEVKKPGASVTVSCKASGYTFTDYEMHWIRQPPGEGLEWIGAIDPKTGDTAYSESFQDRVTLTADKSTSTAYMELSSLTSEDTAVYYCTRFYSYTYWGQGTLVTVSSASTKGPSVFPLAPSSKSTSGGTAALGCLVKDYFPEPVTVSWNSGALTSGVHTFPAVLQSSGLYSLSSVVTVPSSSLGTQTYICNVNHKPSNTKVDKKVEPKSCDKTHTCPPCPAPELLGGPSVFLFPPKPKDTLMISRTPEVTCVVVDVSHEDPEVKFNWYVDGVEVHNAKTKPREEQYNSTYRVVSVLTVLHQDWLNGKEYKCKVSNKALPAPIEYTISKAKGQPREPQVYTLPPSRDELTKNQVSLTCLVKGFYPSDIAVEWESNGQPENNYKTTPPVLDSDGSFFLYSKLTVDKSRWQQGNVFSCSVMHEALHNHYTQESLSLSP
light: DIVMTQSPLSLPVTPGEPASISCQASESLVHSNRNTYLHWYLQKPGQSPQLLIYKVSNRFSGVPDRFSGSGSGTDFTLKISRVEAEDVGVYYCSQNTHVPPTFGQGTKVEIERTVAAPSVFIFPPSDEQLKSGTASVVCLLNNFYPREAKVQWKVDNALQSGNSQESVTEQDSKDSTYSLSSTLTLSKADYEKHKVYACEVTHQGLSSPVTKSFNRGEC
notes: also called Ho Ab K334_15Y
Ho/Con_2aH: 110 % of GpH7-B3/GpL16-k0 (=100)

B4: GpH7-B3 variant S239_09D/GpL16-k0 (antibody, human IgG1, kappa)
heavy: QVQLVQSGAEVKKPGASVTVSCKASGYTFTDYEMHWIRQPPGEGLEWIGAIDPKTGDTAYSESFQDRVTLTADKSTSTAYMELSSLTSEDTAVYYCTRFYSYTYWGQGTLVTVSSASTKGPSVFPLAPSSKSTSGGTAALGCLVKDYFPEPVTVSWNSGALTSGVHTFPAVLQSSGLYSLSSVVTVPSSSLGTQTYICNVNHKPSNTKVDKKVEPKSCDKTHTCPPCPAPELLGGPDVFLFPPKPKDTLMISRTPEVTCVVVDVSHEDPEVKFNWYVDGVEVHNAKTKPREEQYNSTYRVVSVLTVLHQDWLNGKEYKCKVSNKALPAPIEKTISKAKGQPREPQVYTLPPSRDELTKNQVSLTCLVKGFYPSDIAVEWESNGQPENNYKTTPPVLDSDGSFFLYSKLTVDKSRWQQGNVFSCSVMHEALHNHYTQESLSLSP
light: DIVMTQSPLSLPVTPGEPASISCQASESLVHSNRNTYLHWYLQKPGQSPQLLIYKVSNRFSGVPDRFSGSGSGTDFTLKISRVEAEDVGVYYCSQNTHVPPTFGQGTKVEIERTVAAPSVFIFPPSDEQLKSGTASVVCLLNNFYPREAKVQWKVDNALQSGNSQESVTEQDSKDSTYSLSSTLTLSKADYEKHKVYACEVTHQGLSSPVTKSFNRGEC
notes: also called Ho Ab S239_09D
Ho/Con_2aH: 112 % of GpH7-B3/GpL16-k0 (=100)

B5: GpH7-B3 variant L328_13S/GpL16-k0 (antibody, human IgG1, kappa)
heavy: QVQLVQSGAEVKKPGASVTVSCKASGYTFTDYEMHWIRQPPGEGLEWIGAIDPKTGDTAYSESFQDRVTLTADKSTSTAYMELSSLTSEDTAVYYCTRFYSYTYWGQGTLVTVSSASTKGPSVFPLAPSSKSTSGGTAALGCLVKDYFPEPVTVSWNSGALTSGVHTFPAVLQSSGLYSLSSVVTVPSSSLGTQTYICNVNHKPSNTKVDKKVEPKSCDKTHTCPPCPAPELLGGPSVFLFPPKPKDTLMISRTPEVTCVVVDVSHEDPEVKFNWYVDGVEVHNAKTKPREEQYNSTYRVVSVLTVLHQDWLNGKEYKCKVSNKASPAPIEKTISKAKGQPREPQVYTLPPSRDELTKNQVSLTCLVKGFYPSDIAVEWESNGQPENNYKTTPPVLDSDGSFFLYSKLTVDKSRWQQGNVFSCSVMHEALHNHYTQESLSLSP
light: DIVMTQSPLSLPVTPGEPASISCQASESLVHSNRNTYLHWYLQKPGQSPQLLIYKVSNRFSGVPDRFSGSGSGTDFTLKISRVEAEDVGVYYCSQNTHVPPTFGQGTKVEIERTVAAPSVFIFPPSDEQLKSGTASVVCLLNNFYPREAKVQWKVDNALQSGNSQESVTEQDSKDSTYSLSSTLTLSKADYEKHKVYACEVTHQGLSSPVTKSFNRGEC
notes: also called Ho Ab L328_13S
Ho/Con_2aH: 131 % of GpH7-B3/GpL16-k0 (=100)

B6: GpH7-B3 variant K326_09D/GpL16-k0 (antibody, human IgG1, kappa)
heavy: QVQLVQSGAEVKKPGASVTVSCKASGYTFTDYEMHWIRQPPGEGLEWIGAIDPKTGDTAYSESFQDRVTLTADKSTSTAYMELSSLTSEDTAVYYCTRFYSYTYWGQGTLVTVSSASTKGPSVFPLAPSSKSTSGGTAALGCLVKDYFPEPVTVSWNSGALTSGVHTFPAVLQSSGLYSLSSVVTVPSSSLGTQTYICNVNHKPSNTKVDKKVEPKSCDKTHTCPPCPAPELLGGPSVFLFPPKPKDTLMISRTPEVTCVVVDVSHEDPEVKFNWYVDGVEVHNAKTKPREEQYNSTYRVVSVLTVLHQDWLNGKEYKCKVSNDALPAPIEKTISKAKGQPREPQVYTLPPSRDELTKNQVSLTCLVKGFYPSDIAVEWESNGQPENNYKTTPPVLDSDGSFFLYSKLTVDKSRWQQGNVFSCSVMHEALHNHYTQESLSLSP
light: DIVMTQSPLSLPVTPGEPASISCQASESLVHSNRNTYLHWYLQKPGQSPQLLIYKVSNRFSGVPDRFSGSGSGTDFTLKISRVEAEDVGVYYCSQNTHVPPTFGQGTKVEIERTVAAPSVFIFPPSDEQLKSGTASVVCLLNNFYPREAKVQWKVDNALQSGNSQESVTEQDSKDSTYSLSSTLTLSKADYEKHKVYACEVTHQGLSSPVTKSFNRGEC
notes: also called Ho Ab K326_09D
Ho/Con_2aH: 113 % of GpH7-B3/GpL16-k0 (=100)

B7: GpH7-B3 variant K334_03V/GpL16-k0 (antibody, human IgG1, kappa)
heavy: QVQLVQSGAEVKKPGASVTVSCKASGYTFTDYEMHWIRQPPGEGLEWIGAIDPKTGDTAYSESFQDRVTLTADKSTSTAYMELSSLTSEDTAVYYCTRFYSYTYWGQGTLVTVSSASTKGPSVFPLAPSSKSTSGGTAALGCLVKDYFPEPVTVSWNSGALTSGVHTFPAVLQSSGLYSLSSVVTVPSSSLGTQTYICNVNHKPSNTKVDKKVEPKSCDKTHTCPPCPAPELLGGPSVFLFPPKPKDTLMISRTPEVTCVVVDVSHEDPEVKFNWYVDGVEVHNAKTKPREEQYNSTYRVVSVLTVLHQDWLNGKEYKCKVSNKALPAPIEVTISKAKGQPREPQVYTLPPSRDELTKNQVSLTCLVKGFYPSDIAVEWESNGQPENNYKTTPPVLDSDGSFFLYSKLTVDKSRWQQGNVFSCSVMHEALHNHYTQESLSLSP
light: DIVMTQSPLSLPVTPGEPASISCQASESLVHSNRNTYLHWYLQKPGQSPQLLIYKVSNRFSGVPDRFSGSGSGTDFTLKISRVEAEDVGVYYCSQNTHVPPTFGQGTKVEIERTVAAPSVFIFPPSDEQLKSGTASVVCLLNNFYPREAKVQWKVDNALQSGNSQESVTEQDSKDSTYSLSSTLTLSKADYEKHKVYACEVTHQGLSSPVTKSFNRGEC
notes: also called Ho Ab K334_03V
Ho/Con_2aH: 111 % of GpH7-B3/GpL16-k0 (=100)

B8: GpH7-B3 variant K334_08L/GpL16-k0 (antibody, human IgG1, kappa)
heavy: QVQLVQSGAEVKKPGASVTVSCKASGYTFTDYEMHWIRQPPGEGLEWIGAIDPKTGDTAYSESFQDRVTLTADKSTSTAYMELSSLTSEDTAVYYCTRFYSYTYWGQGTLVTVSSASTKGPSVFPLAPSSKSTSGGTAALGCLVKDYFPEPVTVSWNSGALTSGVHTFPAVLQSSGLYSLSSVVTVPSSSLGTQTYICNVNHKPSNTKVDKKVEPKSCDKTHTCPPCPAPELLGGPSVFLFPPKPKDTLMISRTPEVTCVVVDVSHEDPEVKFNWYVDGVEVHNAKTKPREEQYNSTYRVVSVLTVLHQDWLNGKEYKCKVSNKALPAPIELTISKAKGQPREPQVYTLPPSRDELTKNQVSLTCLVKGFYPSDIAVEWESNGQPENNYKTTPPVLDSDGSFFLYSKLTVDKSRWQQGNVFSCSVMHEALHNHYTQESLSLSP
light: DIVMTQSPLSLPVTPGEPASISCQASESLVHSNRNTYLHWYLQKPGQSPQLLIYKVSNRFSGVPDRFSGSGSGTDFTLKISRVEAEDVGVYYCSQNTHVPPTFGQGTKVEIERTVAAPSVFIFPPSDEQLKSGTASVVCLLNNFYPREAKVQWKVDNALQSGNSQESVTEQDSKDSTYSLSSTLTLSKADYEKHKVYACEVTHQGLSSPVTKSFNRGEC
notes: also called Ho Ab K334_08L
Ho/Con_2aH: 103 % of GpH7-B3/GpL16-k0 (=100)

B9: GpH7-B3 variant K326_14T/GpL16-k0 (antibody, human IgG1, kappa)
heavy: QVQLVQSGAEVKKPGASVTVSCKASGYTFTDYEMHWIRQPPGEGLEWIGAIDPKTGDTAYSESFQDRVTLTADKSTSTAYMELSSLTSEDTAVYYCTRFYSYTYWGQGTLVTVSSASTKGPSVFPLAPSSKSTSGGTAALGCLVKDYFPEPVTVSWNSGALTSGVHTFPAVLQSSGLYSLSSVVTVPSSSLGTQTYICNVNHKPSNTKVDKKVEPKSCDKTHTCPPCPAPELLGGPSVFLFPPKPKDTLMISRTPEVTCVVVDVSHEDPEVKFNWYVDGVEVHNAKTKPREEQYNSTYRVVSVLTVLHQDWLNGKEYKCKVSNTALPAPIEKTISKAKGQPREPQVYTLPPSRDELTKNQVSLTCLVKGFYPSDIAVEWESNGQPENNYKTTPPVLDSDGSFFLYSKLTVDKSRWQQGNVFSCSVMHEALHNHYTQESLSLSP
light: DIVMTQSPLSLPVTPGEPASISCQASESLVHSNRNTYLHWYLQKPGQSPQLLIYKVSNRFSGVPDRFSGSGSGTDFTLKISRVEAEDVGVYYCSQNTHVPPTFGQGTKVEIERTVAAPSVFIFPPSDEQLKSGTASVVCLLNNFYPREAKVQWKVDNALQSGNSQESVTEQDSKDSTYSLSSTLTLSKADYEKHKVYACEVTHQGLSSPVTKSFNRGEC
notes: also called Ho Ab K326_14T
Ho/Con_2aH: 118 % of GpH7-B3/GpL16-k0 (=100)

B10: GpH7-B3 variant L328_14T/GpL16-k0 (antibody, human IgG1, kappa)
heavy: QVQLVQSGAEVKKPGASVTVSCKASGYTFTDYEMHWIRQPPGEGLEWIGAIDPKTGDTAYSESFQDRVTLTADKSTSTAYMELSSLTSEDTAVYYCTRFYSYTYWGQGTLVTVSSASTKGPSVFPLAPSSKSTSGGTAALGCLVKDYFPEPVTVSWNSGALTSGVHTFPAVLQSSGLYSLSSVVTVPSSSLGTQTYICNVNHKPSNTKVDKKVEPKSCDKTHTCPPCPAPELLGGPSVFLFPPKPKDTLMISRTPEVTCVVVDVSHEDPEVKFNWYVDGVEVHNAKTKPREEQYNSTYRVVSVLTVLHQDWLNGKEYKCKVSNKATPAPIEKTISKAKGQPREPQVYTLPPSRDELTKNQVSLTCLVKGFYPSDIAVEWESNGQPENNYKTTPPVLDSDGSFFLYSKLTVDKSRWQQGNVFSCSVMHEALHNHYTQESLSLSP
light: DIVMTQSPLSLPVTPGEPASISCQASESLVHSNRNTYLHWYLQKPGQSPQLLIYKVSNRFSGVPDRFSGSGSGTDFTLKISRVEAEDVGVYYCSQNTHVPPTFGQGTKVEIERTVAAPSVFIFPPSDEQLKSGTASVVCLLNNFYPREAKVQWKVDNALQSGNSQESVTEQDSKDSTYSLSSTLTLSKADYEKHKVYACEVTHQGLSSPVTKSFNRGEC
notes: also called Ho Ab L328_14T
Ho/Con_2aH: 110 % of GpH7-B3/GpL16-k0 (=100)

B11: GpH7-B3 variant K334_16H/GpL16-k0 (antibody, human IgG1, kappa)
heavy: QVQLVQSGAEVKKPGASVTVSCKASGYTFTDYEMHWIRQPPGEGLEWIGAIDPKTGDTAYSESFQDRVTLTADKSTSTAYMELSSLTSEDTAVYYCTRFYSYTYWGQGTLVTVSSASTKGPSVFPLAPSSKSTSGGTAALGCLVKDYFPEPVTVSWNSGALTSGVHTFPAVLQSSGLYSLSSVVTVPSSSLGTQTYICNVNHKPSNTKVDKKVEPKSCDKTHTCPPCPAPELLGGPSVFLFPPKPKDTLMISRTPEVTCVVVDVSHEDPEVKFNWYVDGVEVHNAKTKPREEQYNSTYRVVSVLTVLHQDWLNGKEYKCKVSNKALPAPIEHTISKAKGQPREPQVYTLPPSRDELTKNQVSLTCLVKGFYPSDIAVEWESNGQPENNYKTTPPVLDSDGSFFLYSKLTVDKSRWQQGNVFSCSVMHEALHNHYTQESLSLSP
light: DIVMTQSPLSLPVTPGEPASISCQASESLVHSNRNTYLHWYLQKPGQSPQLLIYKVSNRFSGVPDRFSGSGSGTDFTLKISRVEAEDVGVYYCSQNTHVPPTFGQGTKVEIERTVAAPSVFIFPPSDEQLKSGTASVVCLLNNFYPREAKVQWKVDNALQSGNSQESVTEQDSKDSTYSLSSTLTLSKADYEKHKVYACEVTHQGLSSPVTKSFNRGEC
notes: also called Ho Ab K334_16H
Ho/Con_2aH: 101 % of GpH7-B3/GpL16-k0 (=100)
